The values below come from paper PMC12170906.

This data set addresses RNAP-SigA holoenzyme (Mycobacterium tuberculosis, UniProt P9WGZ1;P9WGY9;P9WGY7;P9WGI1 1-347;1-1178;1-1316;1-528). Put plainly: EMSA; 100-200 nM RNAP, heparin. The following applies: protein: recombinant; chain copies: 2;1;1;1; blunt.

Sequence of RNAP-SigA holoenzyme (P9WGZ1 whole entry, chain 1 of 4): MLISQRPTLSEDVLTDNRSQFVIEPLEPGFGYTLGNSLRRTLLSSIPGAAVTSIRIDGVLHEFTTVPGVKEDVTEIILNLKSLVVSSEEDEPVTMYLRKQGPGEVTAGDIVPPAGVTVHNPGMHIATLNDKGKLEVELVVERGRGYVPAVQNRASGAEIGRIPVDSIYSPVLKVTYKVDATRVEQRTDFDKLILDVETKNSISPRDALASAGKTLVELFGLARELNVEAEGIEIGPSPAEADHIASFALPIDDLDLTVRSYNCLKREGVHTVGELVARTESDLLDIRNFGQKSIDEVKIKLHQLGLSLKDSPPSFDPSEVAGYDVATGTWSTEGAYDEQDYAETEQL
Sequence of RNAP-SigA holoenzyme (P9WGY9 whole entry, chain 2 of 4): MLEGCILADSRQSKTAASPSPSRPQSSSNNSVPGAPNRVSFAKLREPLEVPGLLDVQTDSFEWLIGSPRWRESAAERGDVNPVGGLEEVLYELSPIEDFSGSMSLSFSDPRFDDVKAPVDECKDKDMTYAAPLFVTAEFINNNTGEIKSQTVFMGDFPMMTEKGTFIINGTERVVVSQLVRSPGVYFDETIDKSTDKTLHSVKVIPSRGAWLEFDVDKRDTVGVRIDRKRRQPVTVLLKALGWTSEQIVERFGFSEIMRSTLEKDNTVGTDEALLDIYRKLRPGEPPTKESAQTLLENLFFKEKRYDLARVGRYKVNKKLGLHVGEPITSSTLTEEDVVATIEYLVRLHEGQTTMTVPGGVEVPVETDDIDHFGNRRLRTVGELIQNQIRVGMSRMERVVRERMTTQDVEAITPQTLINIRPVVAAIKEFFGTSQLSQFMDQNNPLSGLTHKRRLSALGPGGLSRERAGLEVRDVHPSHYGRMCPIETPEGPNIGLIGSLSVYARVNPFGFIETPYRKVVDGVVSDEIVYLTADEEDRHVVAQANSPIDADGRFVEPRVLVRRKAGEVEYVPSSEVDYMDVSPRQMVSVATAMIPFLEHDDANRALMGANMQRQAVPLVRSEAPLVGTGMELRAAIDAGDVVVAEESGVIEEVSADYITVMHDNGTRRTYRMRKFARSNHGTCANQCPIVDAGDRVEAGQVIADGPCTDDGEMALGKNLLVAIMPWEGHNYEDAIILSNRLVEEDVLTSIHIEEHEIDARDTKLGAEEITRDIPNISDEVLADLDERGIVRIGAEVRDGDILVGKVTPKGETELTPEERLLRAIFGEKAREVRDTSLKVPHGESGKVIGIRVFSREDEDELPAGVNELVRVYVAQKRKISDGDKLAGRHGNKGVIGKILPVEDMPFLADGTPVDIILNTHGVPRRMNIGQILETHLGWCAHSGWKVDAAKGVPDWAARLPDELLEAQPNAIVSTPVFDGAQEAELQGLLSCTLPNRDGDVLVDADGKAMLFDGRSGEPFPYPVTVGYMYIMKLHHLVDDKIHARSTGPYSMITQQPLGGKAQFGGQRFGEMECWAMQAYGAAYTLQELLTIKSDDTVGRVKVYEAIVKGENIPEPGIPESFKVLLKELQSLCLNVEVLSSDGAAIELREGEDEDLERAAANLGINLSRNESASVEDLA
Sequence of RNAP-SigA holoenzyme (P9WGY7 whole entry, chain 3 of 4): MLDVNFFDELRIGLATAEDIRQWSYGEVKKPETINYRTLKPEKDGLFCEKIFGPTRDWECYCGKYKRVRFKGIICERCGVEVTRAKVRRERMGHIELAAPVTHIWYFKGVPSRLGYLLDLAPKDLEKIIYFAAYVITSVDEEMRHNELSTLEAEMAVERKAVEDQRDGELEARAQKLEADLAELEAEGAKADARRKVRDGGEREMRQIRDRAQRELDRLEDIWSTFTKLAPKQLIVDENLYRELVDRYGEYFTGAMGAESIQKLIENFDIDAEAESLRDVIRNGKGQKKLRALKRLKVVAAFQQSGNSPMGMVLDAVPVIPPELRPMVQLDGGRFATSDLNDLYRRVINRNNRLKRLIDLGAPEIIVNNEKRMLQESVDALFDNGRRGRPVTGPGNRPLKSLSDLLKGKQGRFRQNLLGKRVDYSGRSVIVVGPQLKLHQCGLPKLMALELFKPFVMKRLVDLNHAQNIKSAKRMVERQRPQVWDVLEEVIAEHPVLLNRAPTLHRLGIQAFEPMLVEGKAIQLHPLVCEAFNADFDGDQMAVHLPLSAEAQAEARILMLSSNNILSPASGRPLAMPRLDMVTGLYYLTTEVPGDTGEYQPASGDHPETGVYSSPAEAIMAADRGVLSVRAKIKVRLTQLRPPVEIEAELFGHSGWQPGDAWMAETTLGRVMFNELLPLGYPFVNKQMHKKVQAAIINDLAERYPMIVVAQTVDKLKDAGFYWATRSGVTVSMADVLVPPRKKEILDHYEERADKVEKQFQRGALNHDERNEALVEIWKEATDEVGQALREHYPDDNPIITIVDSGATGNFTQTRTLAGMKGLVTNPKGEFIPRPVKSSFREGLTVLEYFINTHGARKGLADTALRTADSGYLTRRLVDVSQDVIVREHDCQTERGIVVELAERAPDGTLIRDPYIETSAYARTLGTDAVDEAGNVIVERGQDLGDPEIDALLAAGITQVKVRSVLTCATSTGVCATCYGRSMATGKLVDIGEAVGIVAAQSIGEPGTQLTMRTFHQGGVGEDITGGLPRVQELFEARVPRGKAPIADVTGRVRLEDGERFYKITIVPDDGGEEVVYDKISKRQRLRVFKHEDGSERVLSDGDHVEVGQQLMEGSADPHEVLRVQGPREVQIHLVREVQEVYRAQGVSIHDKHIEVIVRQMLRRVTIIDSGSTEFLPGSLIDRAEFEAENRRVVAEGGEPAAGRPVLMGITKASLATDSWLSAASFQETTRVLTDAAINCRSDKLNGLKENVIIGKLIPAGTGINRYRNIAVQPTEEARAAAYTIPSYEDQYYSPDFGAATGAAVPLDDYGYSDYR
Sequence of RNAP-SigA holoenzyme (P9WGI1 whole entry, chain 4 of 4): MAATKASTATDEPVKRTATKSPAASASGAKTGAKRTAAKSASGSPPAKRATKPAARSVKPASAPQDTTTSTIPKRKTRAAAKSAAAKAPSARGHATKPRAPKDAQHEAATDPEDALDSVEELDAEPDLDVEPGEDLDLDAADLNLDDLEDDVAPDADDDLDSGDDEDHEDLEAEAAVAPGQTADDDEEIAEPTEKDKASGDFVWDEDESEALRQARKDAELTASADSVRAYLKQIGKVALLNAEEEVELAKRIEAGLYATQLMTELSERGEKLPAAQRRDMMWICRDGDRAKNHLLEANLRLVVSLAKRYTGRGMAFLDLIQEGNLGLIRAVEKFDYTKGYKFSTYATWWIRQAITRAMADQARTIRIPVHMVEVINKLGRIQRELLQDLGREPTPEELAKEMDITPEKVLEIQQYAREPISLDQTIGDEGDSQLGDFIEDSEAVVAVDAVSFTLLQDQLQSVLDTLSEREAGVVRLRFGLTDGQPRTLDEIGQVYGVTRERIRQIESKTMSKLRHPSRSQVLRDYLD

B1: rrnAP3 promoter (dsDNA)
DNA 1: CTATGGATGACCGAACCTGGTCTTGACTCCATTGCCGGATTTGTATTAGACTGGCAGGGTCGCCCCGAAGCGGGCGGAAACAAGCAAGCGTGTTGTTTGAGAACTC
DNA 2: GAGTTCTCAAACAACACGCTTGCTTGTTTCCGCCCGCTTCGGGGCGACCCTGCCAGTCTAATACAAATCCGGCAATGGAGTCAAGACCAGGTTCGGTCATCCATAG
As for B1, the binding result is on record as “binds”.
